Reference: patent publication US20260069707A1, “COMBINATION THERAPY WITH ANTIBODY-DRUG CONJUGATES AND HYALURONIDASES” (HALOZYME, INC., priority 2024, published 2026)

How the values were obtained:
[1] = Calculation of free payload:ADC following ADC administration
Description: Antibody drug conjugates with thiol-malimide conjugation undergo deconjugation following administration. To assess this deconjugation, free payload: ADC was calculated rather than reverse, because for completely stable antibody, ADC:free payload would be infinity.
Antibody drug conjugates with thiol-malimide conjugation undergo deconjugation following administration. To assess this deconjugation, free payload: ADC was calculated for specific antibody drug conjugates including Trastuzumab, Polatuzumab, Enfortumab and Tisotumab.

[2] = Qualitative assessment of local injection sites (erythema, swelling size, induration); format: in vivo, Yucatan miniature pig (Sus scrofa domestica); settings: Example 8: dupilumab 2 mL; dupilumab + rHuPH20 5 mL; T0, three evaluators
Description: (§1) The needle was inserted vertically into the marked injection site and the HVAI held in place by hand. Target needle insertion depth was ˜10 mm. Injections were timed using a stopwatch. Upon completion of the injection the needle was removed and the HVAI device discarded. Test solution back-leakage was then absorbed to a tared eye-spear for 30 seconds on the injection site and the weight of the eye spear was measured using an analytical balance. The margins of the injection site bleb were marked with a permanent marker and measured for length, width, and height using a digital caliper and recorded then photographed with the standard and 3D cameras. Caliper measurements and photographs were taken immediately post-injection. Local injection sites were qualitatively assessed and graded daily for erythema severity, swelling size appearance, and firmness, using a scoring system described in Table 4 Table 5, and Table 6, respectively.
Approximately, 24 hours post-dosing of the first injection, each animal was re-anesthetized, and injection sites assessed for erythema, induration and swelling, then photographed and returned to its cage.

[3] = Post-injection bleb volume, area, height - caliper measurement; format: in vivo, Yucatan miniature pig (Sus scrofa domestica); settings: Example 8: dupilumab 2 mL; dupilumab + rHuPH20 5 mL; T0
Description: as §1
Assessment of Local Swelling Volume and Area Using Caliper Measurement and 3D Imaging. Volume and area of post-injection swelling were measured using both caliper measurement and 3D camera image analysis. For caliper measurements a digital caliper was utilized to measure length, width and height of the bleb that formed post-injection. The length and width are defined as the edge to edge measurements of the bleb (i.e., diameter) along their longest axes. These values were manually recorded, and the volume determined using the formula for half of an ellipsoid Vol=(⅔)*π*A*B*C where A=Length/2, B=Width/2 and C=Height.
Assessment of Post-Injection Bleb Volume, Area and Height (Caliper Measurements). The local injection site swelling (bleb) was marked and measured using a digital caliper.

[4] = Calculation of drug to antibody ratio (DAR); settings: for ADC:free Ab / free Ab:ADC: after adjustment factor
Text: The Drug-to-Antibody Ratio (DAR) is a critical parameter in antibody drug conjugate development, representing the average number of drug molecules attached to each antibody molecule.

[5] = Concentration (weight/mL) basis, unconjugated MMAE/antibody conjugated MMAE over 21 days
[6] = Molar basis, Using molecular weight for the entire linker
[7] = Molar basis, different tumor (line after the one using molecular weight for the entire linker)
[8] = Molar basis, unconjugated MMAE/antibody conjugated MMAE over 21 days
[9] = Concentration (weight/mL) basis
[10] = Molar basis, second line, Unconjugated MMAE/ADC over 21 days
[11] = Concentration (weight/mL) basis, Unconjugated MMAE/ADC over 28 days
[12] = Molar basis, Unconjugated MMAE/ADC over 28 days
[13] = Molar basis, Using molecular weight for the entire linker, MMAE/ADC over 28 days

## Polatuzumab vedotin (Polivy)
[1]; [5]
  free payload: ADC, AUC: 1.52%
  free payload: ADC, Cmax: 0.46%
[1]; [6]
  free payload: ADC, AUC: 173.1%
  free payload: ADC, Cmax: 52.8%
[1]; Molar basis, different tumor
  free payload: ADC, AUC: 257.1%
  free payload: ADC, Cmax: 87.2%
[1]; [7]
  free payload: ADC, AUC: 140.2%
  free payload: ADC, Cmax: 47.5%
[1]; [8]
  free payload: ADC, AUC: 317.5%
  free payload: ADC, Cmax: 96.9%

## Tisotumab vedotin (Tivdak)
[1]; [9]
  free payload: ADC, AUC: 0.09%
  free payload: ADC, Cmax: 0.01%
[1]; Molar basis
  free payload: ADC, AUC: 18.5%
  free payload: ADC, Cmax: 3.1%
[1]; [10]
  free payload: ADC, AUC: 10.1%
  free payload: ADC, Cmax: 1.7%

## dupilumab
[2]
  Induration Score (Mean ± SEM): 2.4 ± 0.4
  Swelling Score (Mean ± SEM): 1.4 ± 0.2
[3]
  Post-injection bleb Area, caliper (Mean ± SEM): 13.1 ± 1.4
  Post-injection bleb Volume, caliper (Mean ± SEM): 7.0 ± 1.8

## Enfortumab vedotin (Padcev)
[1]; [11]
  free payload: ADC, AUC: 0.08%
  free payload: ADC, Cmax: 0.02%
[1]; [12]
  free payload: ADC, AUC: 16.4%
  free payload: ADC, Cmax: 4.2%
[1]; [13]
  free payload: ADC, AUC: 8.9%
  free payload: ADC, Cmax: 2.3%

## mirvetuximab soravtansine
[4]; Day 1
  % DAR remaining (which may be ~ADC/ total Ab): 88.4%
  % DAR remaining after adjustment factor to allow for variability (line without head): 70.7%
  ADC:free Ab: 241.3%
  free Ab:ADC: 41.4%
[4]; Day 7
  % DAR remaining (which may be ~ADC/ total Ab): 32.6%
  % DAR remaining after adjustment factor to allow for variability (line without head): 26.0%
  ADC:free Ab: 35.2%
  free Ab:ADC: 283.9%
